Reference: patent US20210340173A1

Columns and labels:
[1] = target: CCR5-RLuc8 on CHO-CCR5-RLuc8/YFP-CAAX cells (UniProt P51681); experiment: cell-based or functional assay
CCR5 on HEK-CCR5 cells = CCR5 on HEK-CCR5 cells (UniProt P51681); experiment: cell-based or functional assay

“5P12-RANTES reference standard (from UniProt P13501 34-91) (ligand)” was tested, and the CCR5 internalization (bystander BRET) at 300 nM (bottom of the scale) [1] was 0% and the Ca2+ flux signaling at 300 nM on HEK-CCR5 cells (bottom of the scale) (CCR5 on HEK-CCR5 cells) was 0%.

For PSC-RANTES reference standard (ligand), the CCR5 internalization (bystander BRET) at 300 nM (top of the scale) [1] was 100% and the Ca2+ flux signaling at 300 nM on HEK-CCR5 cells (top of the scale) (CCR5 on HEK-CCR5 cells) was 100%.
